Paper PMC1277818, “Substrate specificity analysis of protein kinase complex Dbf2-Mob1 by peptide library and proteome array screening” (BMC Biochemistry, 2005)

Biological target: T1, FHHDbf2-H6Mob1TM9 (Saccharomyces cerevisiae, UniProt P22204+P40484)
T1 construct: made in house; host or cells: Hi5 insect cells (baculovirus)
T1 sequence (P22204 1-572): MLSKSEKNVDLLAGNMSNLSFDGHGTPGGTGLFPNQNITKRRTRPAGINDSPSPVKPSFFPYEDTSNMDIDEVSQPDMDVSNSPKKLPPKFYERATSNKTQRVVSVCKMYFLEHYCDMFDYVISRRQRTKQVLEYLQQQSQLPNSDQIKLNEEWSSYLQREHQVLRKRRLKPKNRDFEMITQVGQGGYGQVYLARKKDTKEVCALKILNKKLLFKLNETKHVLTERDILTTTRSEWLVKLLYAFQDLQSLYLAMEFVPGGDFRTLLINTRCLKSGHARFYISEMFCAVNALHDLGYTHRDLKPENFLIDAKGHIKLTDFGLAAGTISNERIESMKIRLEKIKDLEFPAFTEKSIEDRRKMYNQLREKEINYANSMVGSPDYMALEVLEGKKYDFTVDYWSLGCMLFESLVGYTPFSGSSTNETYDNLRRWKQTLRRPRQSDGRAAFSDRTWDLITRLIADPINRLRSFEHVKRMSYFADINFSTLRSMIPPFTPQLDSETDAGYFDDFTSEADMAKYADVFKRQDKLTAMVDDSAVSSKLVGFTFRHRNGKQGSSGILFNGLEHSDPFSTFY
T1 sequence (P40484 1-314 partner): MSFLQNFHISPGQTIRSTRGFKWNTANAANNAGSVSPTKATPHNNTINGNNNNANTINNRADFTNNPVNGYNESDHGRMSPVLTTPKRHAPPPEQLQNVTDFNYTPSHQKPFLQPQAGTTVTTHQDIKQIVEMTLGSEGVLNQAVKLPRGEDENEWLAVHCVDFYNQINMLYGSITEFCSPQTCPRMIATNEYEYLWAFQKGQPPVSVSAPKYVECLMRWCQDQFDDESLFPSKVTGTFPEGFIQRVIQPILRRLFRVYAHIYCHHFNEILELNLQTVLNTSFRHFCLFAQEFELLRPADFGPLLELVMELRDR
Assay: Yeast proteome chip assay
Format: biochemical
Conditions: [γ-33P]ATP, chips in duplicate
Method: The relatively low sequence complexity of the Dbf2 phosphorylation motif diminished the power of using genome-wide bioinformatics screens to identify putative substrates. Accordingly, we carried out a proteome array screen to identify putative yeast substrates. […] After taking into account the proteins phosphorylated in the negative controls, 67 proteins were determined to be putative Dbf2-Mob1 substrates (Table 3).
Yeast proteome microarrays were prepared as previously described. Overexpressed GST-tagged yeast proteins were purified from ~4,400 yeast strains and spotted on slides. To determine the optimal amount of kinase to use for probing proteome chips, we performed trial assays as described (J. Ptacek et al., submitted). […] The full proteome array was probed with 4 μl ^FHHDbf2-^H6Mob1^TM9 in 200 μl of DKB supplemented with [γ-^33P]ATP. As a control, ^FHHDbf2(N305A)-^H6Mob1^TM9 was used to probe the proteome array. […] To control for autophosphorylated proteins, the proteome array was probed with 200 μl of DKB supplemented with [γ-^33P]ATP. Proteome chips were assayed in duplicate in each case. Data analysis was performed as described (J. Ptacek et al., submitted). Briefly, signals were analyzed by a computer algorithm designed to normalize background and identify signals as positive if 3 of 4 spots (each protein is spotted twice on each slide and each kinase or control was tested on 2 slides) were 2 standard deviations above background and the fourth spot was 1.5 standard deviations above background.

[1] = Table 3, GST fusion proteins on proteome chip, computer analysis
[2] = Table 4, the 25 proteins with highest signal relative to protein amount

| Substance | Slide Signal (after normalization) [1] | Slide Signal (after normalization) [2] |
| --- | --- | --- |
| YDL220C: GST fusion yeast protein on proteome chip | 1.0274 | 1.0274 |
| YMR229C: GST fusion yeast protein on proteome chip | 2.6954 | 2.6954 |
| YDR171W: GST fusion yeast protein on proteome chip | 0.442 |  |
| YNL007C: GST fusion yeast protein on proteome chip | 0.2239 |  |
